Results: patent US20200247886A1 (ZLIP, published 2020)
Blank lines part the entries; values can stand above or below the binder they belong to.

Tests used:
[1] = target: T1, human CD47 expressed on cells (CD47 expressing CHO cells, Jurkat, HL60, DLD1, Raji) (human, UniProt Q08722 19-292); assay: EC50 (nM) as grade, binding on CHO-CD47 cells; legend +++: >0.05 nM and <1 nM
T1 construct: also called CHO-CD47; IAP

CHO/mCD47-GFP = target: T2, CHO/mCD47-GFP (mouse, UniProt Q61735); assay: flow cytometry on CHO cells expressing mouse CD47-GFP, binding percentage
T2 construct: on the cell surface; also called mouse CD47 expressed on CHO cells; CHO cell expressing mouse CD47
T2 sequence (receptor, looked up): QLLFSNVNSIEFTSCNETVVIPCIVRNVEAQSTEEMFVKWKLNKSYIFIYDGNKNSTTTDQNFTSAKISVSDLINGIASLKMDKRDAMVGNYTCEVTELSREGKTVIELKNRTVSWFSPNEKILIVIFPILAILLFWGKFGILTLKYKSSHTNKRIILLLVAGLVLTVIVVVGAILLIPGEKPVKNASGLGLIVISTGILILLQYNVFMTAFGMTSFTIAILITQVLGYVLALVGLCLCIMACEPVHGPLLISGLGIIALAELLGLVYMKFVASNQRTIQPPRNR

[2] = target: T1, human CD47 expressed on cells (CD47 …); assay: EC50 (nM) as grade, binding on Jurkat cells; legend +++: >0.05 nM and <1 nM
[3] = target: T3, CD47 protein (construct not stated; SPR antigen, CD47 coated ELISA plates) (Homo sapiens (Human), UniProt Q08722 19-139, limits assumed); assay: SPR (Biacore T100), affinity (nM) as grade; legend +: >10 nM and <40 nM
T3 construct: also called the antigen

[4] = target: T4, human CD47-Fc protein (Novoprotein, Cat#CG18) (human, UniProt Q08722 19-139); assay: IC50 (nM) as grade, neutralizing ELISA, CD47-hFc on SIRPα coated plate; legend ++++: <8 nM
T4 construct: Bought protein; also called CD47-hFc; hCD47-hFc fusion protein; not shown: human IgG Fc of the bought fusion protein

[5] = target: T1, human CD47 expressed on cells (CD47 …); assay: flow cytometry on human red blood cells, donor 2, MFI; EC50 (nM) table beside the legend
[6] = target: T4, human CD47-Fc protein (Novoprotein, …); assay: IC50 (nM) as grade, blocking of soluble CD47 binding to SIRPα-expressing CHO cells; legend ++: >1 nM and <10 nM
[7] = target: T1, human CD47 expressed on cells (CD47 …); assay: flow cytometry on CD47 expressing CHO cells, MFI (FL-4)
[8] = target: T5, biotin labelled polyhistidine tagged CD47 protein (Novoprotein, Cat#321) (human, UniProt Q08722 19-139, biotin labelled (site not stated)); assay: flow cytometry blocking assay: antibody mixed with biotinylated human CD47 protein; blocked ligand SIRPα on cells; binding percentage
T5 construct: Bought protein; also called biotinylated CD47; biotinylated human CD47 protein; not shown: polyhistidine tag

[9] = target: T1, human CD47 expressed on cells (CD47 …); assay: flow cytometry blocking assay on Raji cells, SIRPα is the blocked ligand, MFI
[10] = target: T1, human CD47 expressed on cells (CD47 …); assay: flow cytometry on human platelets, donor 2, MFI
[11] = target: T1, human CD47 expressed on cells (CD47 …); assay: flow cytometry on human platelets, donor 1, MFI
[12] = target: T1, human CD47 expressed on cells (CD47 …); assay: flow cytometry on human red blood cells, donor 2, MFI
[13] = target: T1, human CD47 expressed on cells (CD47 …); assay: flow cytometry on human red blood cells, donor 1, MFI
[14] = target: T1, human CD47 expressed on cells (CD47 …); assay: IC50 as grade, SIRPα blocking on Raji cells (second part of the table); legend +++: <1 nM
[15] = target: T1, human CD47 expressed on cells (CD47 …); assay: flow cytometry on DLD1 cells, IgG, MFI
[16] = target: T1, human CD47 expressed on cells (CD47 …); assay: IC50 (nM) MFI as grade, blocking biotinylated SIRPa-Fc binding to DLD1 cells; legend +++: <1 nM
[17] = target: T1, human CD47 expressed on cells (CD47 …); assay: flow cytometry blocking assay: 100 nM biotinylated SIRPa-Fc (blocked ligand) on DLD1 cells expressing CD47, frequency
[18] = target: T1, human CD47 expressed on cells (CD47 …); assay: flow cytometry on DLD1 cells, IgG, frequency
[19] = target: T1, human CD47 expressed on cells (CD47 …); assay: flow cytometry blocking assay: 100 nM biotinylated SIRPa-Fc (blocked ligand) on DLD1 cells expressing CD47, MFI
[20] = target: T1, human CD47 expressed on cells (CD47 …); assay: IC50 (nM) Frequency as grade, blocking biotinylated SIRPa-Fc binding to DLD1 cells; legend +++: <1 nM

B1: ABU2 (antibody, V domains shown)
VH: QVQLQQPGAELVRPGASVKLSCKASGYTFTNYWMNWFKQRPEQGLEWIGRIDPYDSETLYNQKFKDKAILTVDKSSSTAYMQLSSLTSEDSAVYYCAGGGKGGFGYWGQGTLVTVSA
VL: DVLMTQTPLSLPVSLGDQASISCRSSQSIVYSNGNTYLEWYLQKPGQSPKLLIYKVSNRFSGVPDRFSGSGSGTDFTLKISRVEAEDLGVYYCFQGSHVPYTFGGGTKLEIK
notes: Murine hybridoma monoclonal antibody
EC50 [1]: 0.05 to 1 nM
binding result (CHO/mCD47-GFP): no binding (tested: about 0.4 ug/ml)
EC50 [2]: 0.05 to 1 nM
Affinity by SPR [3]: 10 to 40 nM
IC50 [4]: < 8 nM
EC50 [5]: 0.25 nM
IC50 [6]: 1 to 10 nM

B2: ABU5 (antibody, V domains shown)
VH: QVQLQQPGAELVKPGASVKMSCKASGYTFTNYWIAWVKRRPGQGLEWIGDFYPGNTSTNYNEKFKTKATLTIDTSSSTAYMQLSSLTSEDSAVYYCARRGRGGSSYWGQGTTLTVSS
VL: DVLMTQTPLSLPVSLGEQASISCRSSQSIVHSNGNTYLEWYLQKPGQSPKLLIYRVANRFSGVPDRFSGSGSGTDFTLKISRVEAEDLGVYYCFQGSHVPWTFGGGTKLEIK
notes: Murine hybridoma monoclonal antibody; also called ABUS [sic]
EC50 [1]: 0.05 to 1 nM
binding result (CHO/mCD47-GFP): no binding (tested: about 0.4 ug/ml)
EC50 [2]: 0.05 to 1 nM
Affinity by SPR [3]: 10 to 40 nM
IC50 [4]: < 8 nM
EC50 [5]: 0.86 nM
IC50 [6]: 1 to 10 nM

B8: ABU9 (IgG, chimeric version of the Fab) (antibody, V domains shown)
VH: EVQLQQSGPELVKPGASVKLSCKASGFTFTNYYIHWVKQRPGQGPEWIGWIYLGSGNTKYNEKFKGKATLTADTSSSTAYLQLSTLISEDSAVYYCARYDYDLYLDSWGQGTTVTVSS
VL: DIKMNQSPSSLSASLGDTITITCHASQNINVWLSWYQQKPGNIPKLLIYKASNLHTGVPSRFSGSGSGTGFTLTISSLQPEDIATYYCQQGQSYPLTFGAGTKLELK
EC50 (read off the curve) [15]: ~0.4 nM
IC50 [16]: < 1 nM
IC50 (read off the curve) [17]: ~0.8 nM
EC50 (read off the curve) [18]: ~0.05 nM
IC50 (read off the curve) [19]: ~0.3 nM
IC50 [20]: < 1 nM

Further lines, results first:

EC50 (read off the curve) [7]: ~1 nM
IC50 (read off the curve) [8]: ~3 nM
B3: C-ABU2 (antibody, V domains shown)
VH: QVQLQQPGAELVRPGASVKLSCKASGYTFTNYWMNWFKQRPEQGLEWIGRIDPYDSETLYNQKFKDKAILTVDKSSSTAYMQLSSLTSEDSAVYYCAGGGKGGFGYWGQGTLVTVSA
VL: DVLMTQTPLSLPVSLGDQASISCRSSQSIVYSNGNTYLEWYLQKPGQSPKLLIYKVSNRFSGVPDRFSGSGSGTDFTLKISRVEAEDLGVYYCFQGSHVPYTFGGGTKLEIK

EC50 [1]: 0.05 to 1 nM
binding result (CHO/mCD47-GFP): no binding (tested: about 0.4 ug/ml)
EC50 [2]: 0.05 to 1 nM
Affinity by SPR [3]: 10 to 40 nM
IC50 [4]: < 8 nM
IC50 [6]: 1 to 10 nM
B4: Positive 1 (commercial anti-CD47 blocking antibody, eBioscience Cat#14-0479) (antibody, V domains shown)
VH: EVQLVESGGDLVKPGGSLKLSCAASGFTFSGYGMSWVRQTPDKRLEWVATITSGGTYTYYPDSVKGRFTISRDNAKNTLYLQIDSLKSEDTAIYFCARSLAGNAMDYWGQGTSVTVSS
VL: DIVMTQSPATLSVTPGDRVSLSCRASQTISDYLHWYQQKSHESPRLLIKFASQSISGIPSRFSGSGSGSDFTLSINSVEPEDVGVYYCQNGHGFPRTFGGGTKLEIK
notes: also called Pos; B6H12

IC50 (read off the curve) [9]: ~0.8 nM
EC50 (read off the curve) [10]: ~0.9 nM
EC50 (read off the curve) [11]: ~1 nM
EC50 (read off the curve) [12]: ~1 nM
EC50 (read off the curve) [13]: ~1 nM
IC50 [14]: < 1 nM
B5: H-ABU 11 (antibody, V domains shown)
VH: QVQLVQSGAEVKKPGASVKVSCKASGYTFTDFYINWVRQAPGQRLEWMGWIYLGSGNTKYNEKFKGRVTITRDTSASTAYMELSSLRSEDTAVYYCARREERGFAYWGQGTLVTVSS
VL: DIVMTQSPDSLAVSLGERATINCKSSQSLLSSSQKNYLAWYQQKPGQPPKLLIYWASTRDSGVPDRFSGSGSGTDFTLTISSLQAEDVAVYYCQQFYSYPLTFGQGTKVEIK

IC50 (read off the curve) [9]: ~0.2 nM
IC50 [14]: < 1 nM
B6: H-ABU 8 (antibody, V domains shown)
VH: QVQLVQSGAEVKKPGASVKVSCKASGYTFTDNYINWVRQAPGQRLEWMGWVYLGSGNTKYNEKFKGRVTITRDTSASTAYMELSSLRSEDTAVYYCARREERGFAYWGQGTLVTVSS
VL: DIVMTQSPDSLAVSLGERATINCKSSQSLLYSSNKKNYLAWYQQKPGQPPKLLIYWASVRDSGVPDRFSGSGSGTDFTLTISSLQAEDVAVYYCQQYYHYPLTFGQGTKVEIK

EC50 (read off the curve) [15]: ~0.4 nM
IC50 [16]: < 1 nM
IC50 (read off the curve) [17]: ~0.8 nM
EC50 (read off the curve) [18]: ~0.05 nM
IC50 (read off the curve) [19]: ~0.3 nM
IC50 [20]: < 1 nM
B7: ABU14 (IgG, chimeric version of the Fab) (antibody, V domains shown)
VH: EVQLQQSGPELVKPGASVKISCKASGYSFTNYHIHWVKQRPGQGLEWIGWIYPGSGNTKYNEKFKGMAILTADTSSSTAYMQLSSLTSEDSAVYYCARYDYDLYLHSWGQGTTVTVSS
VL: DIQINQSPSSLSASLGDTITITCHASQNINVWLSWYQQKPGNIPKLLIYKASNLHTGVPSRFSGSGSGTGFTLTISSLQPEDIATYYCQQGQSYPLTFGAGTKLEIK
